Measurements: publication PMC7544431 (Nature, 2020)

B1: human MCU (subunit of the purified uniplex) (natural protein, UniProt Q8NE86 51-351, looked up)
chain: VHQRIASWQNLGAVYCSTVVPSDDVTVVYQNGLPVISVRLPSRRERCQFTLKPISDSVGVFLRQLQEEDRGIDRVAIYSPDGVRVAASTGIDLLLLDDFKLVINDLTYHVRPPKRDLLSHENAATLNDVKTLVQQLYTTLCIEQHQLNKERELIERLEDLKEQLAPLEKVRIEISRKAEKRTTLVLWGGLAYMATQFGILARLTWWEYSWDIMEPVTYFITYGSAMAMYAYFVMTRQEYVYPEARDRQYLLFFHKGAKKSRFDLEKYNQLKDAIAQAEMDLKRLRDPLQVHLPLRQIGEKD
B2: human MICU2 (subunit of the purified uniplex) (natural protein, UniProt Q8IYU8 23-434, looked up)
chain: AVSRQAVRSPGPLAAAVAGAALAGAGAAWHHSRVSVAARDGSFTVSAQKNVEHGIIYIGKPSLRKQRFMQFSSLEHEGEYYMTPRDFLFSVMFEQMERKTSVKKLTKKDIEDTLSGIQTAGCGSTFFRDLGDKGLISYTEYLFLLTILTKPHSGFHVAFKMLDTDGNEMIEKREFFKLQKIISKQDDLMTVKTNETGYQEAIVKEPEINTTLQMRFFGKRGQRKLHYKEFRRFMENLQTEIQEMEFLQFSKGLSFMRKEDFAEWLLFFTNTENKDIYWKNVREKLSAGESISLDEFKSFCHFTTHLEDFAIAMQMFSLAHRPVRLAEFKRAVKVATGQELSNNILDTVFKIFDLDGDECLSHEEFLGVLKNRMHRGLWVPQHQSIQEYWKCVKKESIKGVKEVWKQAGKGLF
modifications: disulfide to MICU1 (C413 of MICU2 and C463 of MICU1 in range)

What was measured:
cryo-EM structure [1] = molecular target: the molecule itself; assay: cryo-EM structure
cryo-EM structure [2] = molecular target: the molecule itself; assay: cryo-EM structure; remark: listed apart in the source

Protein	stoichiometry N (cryo-EM structure [1])	binding result (cryo-EM structure [2])
B1	4	
B2		binds
